# Source: patent publication US20030091990A1, “Methods and compositions involving thymidine phosphorylase as a marker for HIV infection, aids progression, and drug resistance” (priority 2001, published 2003)
# Test system: resting CD4+ T lymphocytes
# Assay: Affymetrix GeneChip Expression Analysis of resting CD4+ T lymphocytes
# Format: cell-based
# Details: incubated 3 hrs at 37° C.; Human Genome U95A chips; fold changes from +2.0 to -2.0 removed; comparison with Mock control
# Method: To investigate the changes in RNA expression of resting CD4+ T lymphocytes by HIV-1, Affymetrix GeneChip® Expression Analysis was done. Purified resting CD4+ T lymphocytes (purity of >98%) prepared from a healthy donor by StemCell™ magnetic column technique were incubated with HIV-1213 ((M.O.I. 0.5-1), IL-16 (10 ng/ml), or MHC II peptide (50 μM, RK1) in a 37° C. humidified 5% CO2 incubator for 3 hrs). Then, total cytoplasmic RNA was extracted by using RNA isolation kit (Qiagen) according to the manufacturer's instructions. Isolated RNA was applied on the Human Genome U95A chips, containing 12,626 full-length genes (Affymetrix, Santa Clara, Calif.). Data were generated from hybridization intensities measured on GeneChip expression probe arrays and analyzed by GeneChip software provided by Affymetrix. In order to compare gene expression levels between two samples (Mock, HIV213, IL-16 and MHC II peptide), Comparison Analysis was performed on data from two separate probe array experiments by determining the relative changes in abundance for each transcript. All moderate increase, moderate decrease and no change were removed. All fold changes from +2.0 to −2.0 were also removed. […] TP (PDECGF) was one of the molecules that have shown great change in its mRNA level when CD4 T cells were signalled with HIV (48 fold change). […]
molecule,measurement,value
"IL-16: IL-16 (10 ng/ml) incubated with resting CD4+ T lymphocytes (protein, UniProt Q14005 1212-1332, looked up) Interleukin-16: SAASASAASDVSVESTAEATVCTVTLEKMSAGLGFSLEGGKGSLHGDKPLTINRIFKGAASEQSETVQPGDEILQLGGTAMQGLTRFEAWNIIKALPDGPVTIVIRRKSLQSKETTAAGDS",genes changed vs. Mock,84 genes
